Test results: US20230131339A1, “EPI-X4 BASED PEPTIDES AND DERIVATIVES THEREOF” (Universitaet Ulm, priority 2020, published 2023)
“And” between values parts separate entries of the source, which are not always exact repeats. Identical values can stand only once. Where a SMILES comes first, the peptide text is derived from it. Primed or numbered codes have the meaning given here. Where no end group is shown, it is not given here. Side-chain parts run from the residue outwards. [ ]: non-standard residue; d: D form. The star is where a group is joined. Glu″ = glutamate linker (Glu-Pal); Palmitoyl = CCCCCCCCCCCCCCCC(=O)*; Myristoyl = CCCCCCCCCCCCCC(=O)*; Glu = glutamate linker; Ole = not defined here

Columns and labels:
[1] = tested on: CXCR4-tropic X4-HIV-1 (NL4-3); assay type: cell-based; settings: for IC50: CXCR4-tropic X4- (NL4-3)
Description: The activity of the peptides was estimated by different assays.
The X4-HIV inhibition assay is designed to measure the activity of the inventive peptides by their efficiency of blocking the infection of tissue culture cells by CXCR4-tropic HIV-1 variants.
HIV-1 inhibition assay. […] For infection of TZM-bl cells in presence of inhibitors, cells were seeded at a density of 1×10^5 cells/ml in 70 μl DMEM containing 2.5% FCS. Compounds were diluted in PBS and 10 μl were added. After 15 minutes of incubation cells were inoculated with 20 μl of diluted virus. Infection rates were determined three days later using Gal-Screen system (Applied Biosystems).

[2] = biological target: CXC chemokine receptor type 4 (CXCR4) (human, UniProt P61073 1-352); experiment: cell-based or functional assay
Sequence of CXC chemokine receptor type 4 (CXCR4) (P61073 whole entry): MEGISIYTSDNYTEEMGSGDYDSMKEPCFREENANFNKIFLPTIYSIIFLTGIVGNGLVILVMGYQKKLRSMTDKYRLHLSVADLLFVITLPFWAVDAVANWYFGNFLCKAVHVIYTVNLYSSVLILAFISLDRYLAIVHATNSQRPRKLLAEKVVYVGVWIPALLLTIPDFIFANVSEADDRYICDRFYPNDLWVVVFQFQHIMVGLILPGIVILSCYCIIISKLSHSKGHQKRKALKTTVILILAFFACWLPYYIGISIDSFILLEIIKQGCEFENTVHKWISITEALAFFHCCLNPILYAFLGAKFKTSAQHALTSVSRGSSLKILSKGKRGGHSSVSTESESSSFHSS

Molecule: CC[C@H](C)[C@H](N)C(=O)N[C@@H](CC(C)C)C(=O)N[C@@H](CCCNC(=N)N)C(=O)N[C@@H](Cc1c[nH]c2ccccc12)C(=O)N[C@@H](CO)C(=O)N[C@@H](CCCNC(=N)N)C(=O)N[C@@H](CCCCN)C(=O)N[C@@H](Cc1ccccc1)C(=O)N1CCC[C@H]1C(=O)N[C@@H](CS)C(=O)N[C@H](C(=O)N[C@@H](CO)C(=O)O)C(C)C [JM #22] (H-ILRWSRKFPCVS-OH; C-terminus assumed)
- IC50 [1]: < 5 nM

Molecule: CC[C@H](C)[C@H](N)C(=O)N[C@@H](CC(C)C)C(=O)N[C@@H](CCCNC(=N)N)C(=O)N[C@@H](Cc1c[nH]c2ccccc12)C(=O)N[C@@H](CO)C(=O)N[C@@H](CCCNC(=N)N)C(=O)N[C@@H](CCCCN)C(=O)N[C@@H](CCSC)C(=O)N1CCC[C@H]1C(=O)N[C@@H](CS)C(=O)N[C@@H](CCSC)C(=O)N[C@@H](CO)C(=O)O [JM #20] (H-ILRWSRKMPCMS-OH; C-terminus assumed)
- IC50 [1]: < 5 nM

Molecule: d-MLRWSRK(Glu-Pal)-NH2 ([dM]LRWSRK([Glu″-Palmitoyl])-NH2) [JM #196]
- anti-HIV-1 activity (in words) [1]: strongly increased anti-HIV-1 activity

Molecule: CC[C@H](C)[C@H](N)C(=O)N[C@@H](CC(C)C)C(=O)N[C@@H](CCCNC(=N)N)C(=O)N[C@@H](Cc1c[nH]c2ccccc12)C(=O)N[C@@H](CO)C(=O)N[C@@H](CCCNC(=N)N)C(=O)N[C@@H](CCCCN)C(=O)N[C@@H](CCSC)C(=O)N1CCC[C@H]1C(=O)N[C@@H](CS)C(=O)N[C@@H](Cc1ccccc1)C(=O)N[C@@H](CO)C(=O)O [JM #19] (H-ILRWSRKMPCFS-OH; C-terminus assumed)
- IC50 [1]: 5 to 10 nM

Molecule: d-MLRWSRKK(Glu-Pal)-NH2 ([dM]LRWSRKK([Glu″-Palmitoyl])-NH2) [JM #197]
- anti-HIV-1 activity (in words) [1]: strongly increased anti-HIV-1 activity

Molecule: CC[C@H](C)[C@H](N)C(=O)N[C@@H](CCSC)C(=O)N[C@@H](CCCNC(=N)N)C(=O)N[C@@H](Cc1c[nH]c2ccccc12)C(=O)N[C@@H](CO)C(=O)N[C@@H](CCCNC(=N)N)C(=O)N[C@@H](CCCCN)C(=O)N[C@@H](CCSC)C(=O)N1CCC[C@H]1C(=O)N[C@@H](CS)C(=O)N[C@H](C(=O)N[C@@H](CO)C(=O)O)C(C)C [JM #17] (H-IMRWSRKMPCVS-OH; C-terminus assumed)
- IC50 [1]: < 5 nM

B1: SC024 (peptide)
peptide: ILRWSRKLPCVS
modifications: also: coupled to PEG 20 kDa, site not given here
- IC50, HIV-1 inhibition assay [2]: 118 nM

B2: JM#213 (peptide)
peptide: ILRWSRKLPCVS
modifications: not fully specified (residue 7)
- IC50, HIV inhibition assay [2]: 5 to 10 nM

B3: JM#18 (peptide)
peptide: ILRWSRKMPCLS
- IC50, X4-HIV-1 inhibition assay [2]: < 5 nM

B4: SEQ ID NO.: 163 (peptide)
peptide: ILRWSRK([Glu-Palmitoyl])LPSVS
- IC50, HIV inhibition assay [2]: > 150 nM

B5: JM#236 (peptide)
peptide: [dL]LRWSRK(Palmitoyl)-NH2
modifications: N-terminus assumed
SMILES: CCCCCCCCCCCCCCCC(=O)NCCCC[C@H](NC(=O)[C@H](CCCNC(=N)N)NC(=O)[C@H](CO)NC(=O)[C@H](Cc1c[nH]c2ccccc12)NC(=O)[C@H](CCCNC(=N)N)NC(=O)[C@H](CC(C)C)NC(=O)[C@H](N)CC(C)C)C(N)=O
- IC50, HIV inhibition assay [2]: > 150 nM

B6: JM#180 (peptide)
peptide: [dL]MRWSRK(Palmitoyl)-NH2
modifications: N-terminus assumed
SMILES: CCCCCCCCCCCCCCCC(=O)NCCCC[C@H](NC(=O)[C@H](CCCNC(=N)N)NC(=O)[C@H](CO)NC(=O)[C@H](Cc1c[nH]c2ccccc12)NC(=O)[C@H](CCCNC(=N)N)NC(=O)[C@H](CCSC)NC(=O)[C@H](N)CC(C)C)C(N)=O
- IC50, HIV inhibition assay [2]: 5 to 10 nM

B7: JM#22 (peptide)
peptide: ILRWSRKFPCVS
- IC50, X4-HIV-1 inhibition assay [2]: < 5 nM

B8: JM#238 (peptide)
peptide: [dI]LRWSRK-NH2
modifications: not fully specified (residue 7)
- IC50, HIV inhibition assay [2]: 5 to 10 nM

B9: JM#194 (peptide)
peptide: [dL]MRWSRK-NH2
modifications: not fully specified (residue 7)
- IC50, X4-HIV-1 inhibition assay [2]: < 5 nM and 2 nM

B10: JM#192 (peptide)
peptide: ILRWSRK-NH2
modifications: not fully specified (residue 7)
- IC50, X4-HIV-1 inhibition assay [2]: < 5 nM and 2 nM

B11: SC033 (peptide)
peptide: ILRWSRKLPCVS
modifications: also: PEG-coupled, average 5 kDa
- IC50, HIV-1 inhibition assay [2]: 716 nM

B12: JM#261 (peptide)
peptide: [dL]LRWSRK(Myristoyl)-NH2
modifications: N-terminus assumed
SMILES: CCCCCCCCCCCCCC(=O)NCCCC[C@H](NC(=O)[C@H](CCCNC(=N)N)NC(=O)[C@H](CO)NC(=O)[C@H](Cc1c[nH]c2ccccc12)NC(=O)[C@H](CCCNC(=N)N)NC(=O)[C@H](CC(C)C)NC(=O)[C@H](N)CC(C)C)C(N)=O
- IC50, HIV inhibition assay [2]: > 150 nM

B13: JM#172 (peptide)
peptide: ILRWSRK(Palmitoyl)L-NH2
modifications: N-terminus assumed
SMILES: CCCCCCCCCCCCCCCC(=O)NCCCC[C@H](NC(=O)[C@H](CCCNC(=N)N)NC(=O)[C@H](CO)NC(=O)[C@H](Cc1c[nH]c2ccccc12)NC(=O)[C@H](CCCNC(=N)N)NC(=O)[C@H](CC(C)C)NC(=O)[C@@H](N)[C@@H](C)CC)C(=O)N[C@@H](CC(C)C)C(N)=O
- IC50, HIV inhibition assay [2]: 5 to 10 nM

B14: JM#19 (peptide)
peptide: ILRWSRKMPCFS
- IC50, HIV inhibition assay [2]: 5 to 10 nM

B15: JM#183 (peptide)
peptide: ILRWSRK(Ole)LPCVS
modifications: reading uncertain
- IC50, HIV inhibition assay [2]: 5 to 10 nM

B16: JM#13 (peptide)
peptide: ILRWSRKMPCVS
- IC50, X4-HIV-1 inhibition assay [2]: < 5 nM

B17: JM#255 (peptide)
peptide: ILRWSRK-NH2
modifications: not fully specified (residue 7)
- IC50, X4-HIV-1 inhibition assay [2]: < 5 nM

B18: JM#257 (peptide)
peptide: [dL]LRWSRK-NH2
modifications: not fully specified (residue 7)
- IC50, HIV inhibition assay [2]: 5 to 10 nM

B19: SC029 (peptide)
peptide: ILRWSRKLPCVS
modifications: also: peptide copies coupled to the two different ends of PEG 20 kDa
- IC50, HIV-1 inhibition assay [2]: 98 nM

B20: JM#17 (peptide)
peptide: IMRWSRKMPCVS
- IC50, X4-HIV-1 inhibition assay [2]: < 5 nM

B21: JM#20 (peptide)
peptide: ILRWSRKMPCMS
- IC50, X4-HIV-1 inhibition assay [2]: < 5 nM

B22: JM#237 (peptide)
peptide: [dI]LRWSRK(Palmitoyl)-NH2
- IC50, HIV inhibition assay [2]: > 150 nM

B23: JM#235 (peptide)
peptide: [dL]LRWSRK-NH2
modifications: not fully specified (residue 7)
- IC50, HIV inhibition assay [2]: 5 to 10 nM
